Molecular target: T1, CasEnd-9 (synthetic construct)
T1 chain: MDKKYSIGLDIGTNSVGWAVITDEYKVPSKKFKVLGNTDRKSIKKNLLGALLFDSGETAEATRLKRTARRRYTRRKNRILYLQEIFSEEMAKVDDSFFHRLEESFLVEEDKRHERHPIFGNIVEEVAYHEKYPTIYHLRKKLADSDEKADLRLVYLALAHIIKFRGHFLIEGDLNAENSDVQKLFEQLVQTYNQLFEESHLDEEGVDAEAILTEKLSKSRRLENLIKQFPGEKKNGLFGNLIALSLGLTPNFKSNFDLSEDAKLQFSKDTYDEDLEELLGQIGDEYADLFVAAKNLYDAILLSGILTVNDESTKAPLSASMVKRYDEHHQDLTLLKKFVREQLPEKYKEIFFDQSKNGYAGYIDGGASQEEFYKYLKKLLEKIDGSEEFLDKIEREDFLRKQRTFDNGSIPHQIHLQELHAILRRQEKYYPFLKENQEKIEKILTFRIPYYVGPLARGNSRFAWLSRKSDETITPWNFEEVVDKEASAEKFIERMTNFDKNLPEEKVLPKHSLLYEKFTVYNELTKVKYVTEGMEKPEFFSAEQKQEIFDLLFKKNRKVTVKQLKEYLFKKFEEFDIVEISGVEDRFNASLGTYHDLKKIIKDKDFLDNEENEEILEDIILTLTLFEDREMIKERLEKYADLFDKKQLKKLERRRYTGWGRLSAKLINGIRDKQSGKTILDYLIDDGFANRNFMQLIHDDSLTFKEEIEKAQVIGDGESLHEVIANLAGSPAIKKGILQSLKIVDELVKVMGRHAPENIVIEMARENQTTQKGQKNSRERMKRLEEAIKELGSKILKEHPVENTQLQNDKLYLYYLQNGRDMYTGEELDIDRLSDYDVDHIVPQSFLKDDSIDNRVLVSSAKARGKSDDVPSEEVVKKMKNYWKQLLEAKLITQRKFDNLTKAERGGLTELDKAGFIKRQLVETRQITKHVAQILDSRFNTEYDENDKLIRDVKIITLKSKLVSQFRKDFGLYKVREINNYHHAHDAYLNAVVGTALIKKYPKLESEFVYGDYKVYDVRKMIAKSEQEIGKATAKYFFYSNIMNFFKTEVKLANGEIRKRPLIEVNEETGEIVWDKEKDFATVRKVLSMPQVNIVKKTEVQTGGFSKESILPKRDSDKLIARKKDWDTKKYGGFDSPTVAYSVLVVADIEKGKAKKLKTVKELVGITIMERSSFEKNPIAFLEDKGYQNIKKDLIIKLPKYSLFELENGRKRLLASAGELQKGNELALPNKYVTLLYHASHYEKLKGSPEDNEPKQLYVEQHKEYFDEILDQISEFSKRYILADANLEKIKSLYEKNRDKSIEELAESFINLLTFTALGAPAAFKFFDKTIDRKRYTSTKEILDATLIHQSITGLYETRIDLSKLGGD
Assay: cell_activity; +++; HEK293T; PAM not stated
How it was run: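 Editing activity was scored as the fraction of GFP+ cells on day 4 by flow cytometry. BFP-expressing HEK293T cells (250,000) received by nucleofection 200 ng plasmid for the RT-Cas fusion protein and 200 ng template RNA plasmid designed to convert BFP to GFP.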

B1: BFP-to-GFP template RNA ; BFP reporter protospacer (ssRNA ; dsDNA)
RNA: GCCGAAGCACUGCACGCCGUGUUUUAGAGCUAGAAAUAGCAAGUUAAAAUAAGGCUAGUCCGUUAUCAACUUGAAAAAGUGGCACCGAGUCGGUGCACCCUGACGUACGGCGUGCAGUGCUU
DNA 1: GCCGAAGCACTGCACGCCGT
DNA 2: ACGGCGTGCAGTGCTTCGGC
Question: For B1, which activity is on record?
Answer: The activity was ≥ 100 % of reference.

Reference: patent US20250092426, “CAS ENDONUCLEASES AND RELATED METHODS” (Flagship Pioneering Innovations VII, LLC, published 2025)
